Laboratory results from US20180327746, “Alpha-AMYLASE-BINDING NUCLEIC ACID MOLECULE AND USE THEREOF” (NEC Solution Innovators, Ltd., published 2018).

Tests used:
chromogranin A (CgA) = biological target: T1, chromogranin A (CgA) (Homo sapiens, UniProt P10645 P10645:19-457); assay: capillary electrophoresis specificity control; conditions: tags: N-terminal His-tag; full length, Creative BioMart CHGA-26904TH; label: 5' TYE665
T1 sequence: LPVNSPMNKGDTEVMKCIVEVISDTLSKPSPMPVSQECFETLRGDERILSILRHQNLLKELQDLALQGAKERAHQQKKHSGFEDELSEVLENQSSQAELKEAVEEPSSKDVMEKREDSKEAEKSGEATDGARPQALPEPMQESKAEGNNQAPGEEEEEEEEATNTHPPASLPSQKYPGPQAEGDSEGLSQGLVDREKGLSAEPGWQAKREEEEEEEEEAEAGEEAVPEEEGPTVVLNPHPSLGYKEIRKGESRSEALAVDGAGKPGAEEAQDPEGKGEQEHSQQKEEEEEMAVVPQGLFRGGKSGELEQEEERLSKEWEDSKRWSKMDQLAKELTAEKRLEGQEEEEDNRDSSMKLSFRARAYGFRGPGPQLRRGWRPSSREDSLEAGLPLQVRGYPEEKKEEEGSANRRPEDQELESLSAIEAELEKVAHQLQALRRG
Method: (§1) Reaction solutions containing the labeled aptamer (SEQ ID NO: 1) were prepared. Each of the reaction solutions was subjected to CAE under the following conditions. The reaction solution was caused to migrate while separating the components therefrom, and the fluorescence at a maximum absorption wavelength (665 nm) of the fluorescent substance was measured. As the reaction solutions, the following four types of reaction solutions were used: a reaction solution 1 containing the labeled aptamer only; a reaction solution 2 containing the labeled aptamer and the α-amylase; a reaction solution 3 containing the labeled aptamer and the saliva; and a reaction solution 4 containing the labeled aptamer as the negative control and the saliva. In each of the reaction solutions, the concentration of the labeled aptamer was 200 nmol/L. In the reaction solution 2, the concentration of the α-amylase was 2 μmol/L. In the reaction solutions 3 and 4, the concentration of the saliva was 10%. The reminder of each of the reaction solutions was a buffer solution. The composition of the buffer solution was as follows: 40 mmol/L HEPES (pH 7.5), 125 mmol/L NaCl, 5 mmol/L KCl, and 1 mmol/L MgCl₂.
(§2) Preparation of the reaction solution 2 and the binding ability analysis by CAE were carried out in the same manner as in the above item (3), except that the labeled aptamers (SEQ ID NOs: 1, 2, 3, and 19) were used. Further, in order to examine the specificity of the labeled aptamers to the α-amylase, the binding ability analysis by CAE was performed in the same manner as in the case where the above-described reaction solution 2 was used, except that, instead of the α-amylase, human chromogranin A (CgA, recombinant full length protein, Creative BioMart, #CHGA-26904TH) or human IgA (secretory, Biomedicals, LLC-Cappel Products, #55905), each having a His-tag fused at the N terminus were used.

alpha-amylase [1] = biological target: T2, alpha-amylase (Homo sapiens, UniProt P0DUB6 P0DUB6:16-511); assay: capillary electrophoresis; 200 nM aptamer, 2 uM amylase, 1 mM MgCl2; conditions: tags: none stated; commercial human alpha-amylase, Lee Biosolutions; label: 5' TYE665
T2 sequence: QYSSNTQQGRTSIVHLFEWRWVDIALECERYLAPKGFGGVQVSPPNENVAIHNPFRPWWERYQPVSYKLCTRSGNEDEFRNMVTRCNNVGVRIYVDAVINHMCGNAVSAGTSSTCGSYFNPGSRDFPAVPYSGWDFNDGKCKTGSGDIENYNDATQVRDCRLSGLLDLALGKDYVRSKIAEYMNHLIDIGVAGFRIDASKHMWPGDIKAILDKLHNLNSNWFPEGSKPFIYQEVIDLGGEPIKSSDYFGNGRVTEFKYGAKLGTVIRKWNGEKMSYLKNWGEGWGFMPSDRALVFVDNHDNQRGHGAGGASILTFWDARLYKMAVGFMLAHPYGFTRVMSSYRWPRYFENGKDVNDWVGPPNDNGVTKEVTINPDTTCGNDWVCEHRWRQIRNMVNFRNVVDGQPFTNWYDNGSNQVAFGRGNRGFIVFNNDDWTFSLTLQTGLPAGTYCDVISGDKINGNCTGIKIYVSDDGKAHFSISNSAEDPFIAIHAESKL
Method: as §1, §2

alpha-amylase [2] = biological target: T2, alpha-amylase; assay: SPR; SPR buffer with 1 mM MgCl2, pH 7.4; Chi2 30.79; conditions: tags: none stated; commercial human alpha-amylase, Lee Biosolutions; label: 3' poly(dA)20 captured on biotin-poly(dT)20
Method: (§3) Biotinylated poly(dT) at 5 μmol/L was injected to a flow cell of the sensor chip using ultrapure water (DDW), and the binding was allowed to proceed until the signal intensity (RU: Resonance Unit) reached about 900 RU. The biotinylated poly(dT) was prepared by biotinylating the 5′ end of 20-mer deoxythymidine. Then, the poly(dA)-added aptamer at 200 nmol/L was injected to the flow cell of the chip using an SPR buffer at a flow rate of 25 μL/min for 80 seconds, and the binding was allowed to proceed until the signal intensity reached about 800 RU. […] With 0 seconds being the start of the injection, the mean value of signal intensities from 115 seconds to 125 seconds was determined. […] Then, the value (B/A) obtained by dividing the protein binding measured value (B) by the aptamer immobilization measured value (A) was determined as a relative value (Relative Unit).
(§4) The binding ability of the aptamers was analyzed by SPR in the same manner as in Example 1, except that the concentration of the α-amylase in the specimen was set to a plurality of values. The concentration was set to 20 nmol/L, 10 nmol/L, 5 nmol/L, 2.5 nmol/L, and 1.25 nmol/L. Then, from the results obtained by the SPR analysis, the kinetic parameter and the chi-squared value were calculated.

alpha-amylase [3] = biological target: T2, alpha-amylase; assay: SPR; SPR buffer with 1 mM MgCl2, pH 7.4; Chi2 5.69; conditions: tags: none stated; commercial human alpha-amylase, Lee Biosolutions; label: 3' poly(dA)20 captured on biotin-poly(dT)20
Method: as §3, §4

alpha-amylase [4] = biological target: T2, alpha-amylase; assay: SPR; SPR buffer with 1 mM MgCl2, pH 7.4; Chi2 5.18; conditions: tags: none stated; commercial human alpha-amylase, Lee Biosolutions; label: 3' poly(dA)20 captured on biotin-poly(dT)20
Method: as §3, §4

alpha-amylase [5] = biological target: T2, alpha-amylase; assay: SPR; SPR buffer with 1 mM MgCl2, pH 7.4; Chi2 17.73; conditions: tags: none stated; commercial human alpha-amylase, Lee Biosolutions; label: 3' poly(dA)20 captured on biotin-poly(dT)20
Method: as §3, §4

alpha-amylase [6] = biological target: T2, alpha-amylase; assay: SPR; 400 nM amylase, 1 mM MgCl2, pH 7.4; conditions: tags: none stated; commercial human alpha-amylase, Lee Biosolutions; label: 3' poly(dA)20 captured on biotin-poly(dT)20
Method: The analysis of the binding ability was carried out using a ProteON XPR36 (BioRad) in accordance with its instructions for use.
First, as a sensor chip designed specifically for the ProteON, a streptavidin-immobilized chip (trade name: ProteOn NLC Sensor Chip, BioRad) was set in the ProteON XPR36. Biotinylated poly(dT) at 5 μmol/L was injected to a flow cell of the sensor chip using ultrapure water (DDW), and the binding was allowed to proceed until the signal intensity (RU: Resonance Unit) reached about 900 RU. The biotinylated poly(dT) was prepared by biotinylating the 5′ end of 20-mer deoxythymidine. Then, the poly(dA)-added aptamer at 200 nmol/L was injected to the flow cell of the chip using an SPR buffer at a flow rate of 25 μL/min for 80 seconds, and the binding was allowed to proceed until the signal intensity reached about 800 RU. […] Subsequently, the specimen was injected using the SPR buffer at a flow rate of 50 μL/min for 120 seconds, followed by washing performed by flowing the SPR buffer under the same conditions for 300 seconds. The concentration of the human α-amylase in the specimen was set to 400 nmol/L. Signal intensity measurement was performed concurrently with the injection of the specimen and the washing with the SPR buffer. With 0 seconds being the start of the injection, the mean value of signal intensities from 115 seconds to 125 seconds was determined. […] Then, the value (B/A) obtained by dividing the protein binding measured value (B) by the aptamer immobilization measured value (A) was determined as a relative value (Relative Unit).

alpha-amylase [7] = biological target: T2, alpha-amylase; assay: SPR; 40 mM HEPES pH 7.4, 125 mM NaCl, 5 mM KCl, 1 mM MgCl2, 0.01% Tween 20; Chi2 2.68; conditions: tags: none stated; commercial human alpha-amylase, Lee Biosolutions; label: 3' poly(dA)20 captured on biotin-poly(dT)20
Method: as §3, §4

alpha-amylase [8] = biological target: T2, alpha-amylase; assay: SPR; SPR buffer with 1 mM MgCl2, pH 7.4; Chi2 23.63; conditions: tags: none stated; commercial human alpha-amylase, Lee Biosolutions; label: 3' poly(dA)20 captured on biotin-poly(dT)20
Method: as §3, §4

B1: TYE665-AML1243KR8m2 (ssDNA)
DNA: GGATACCTTAACGCCGCCTATTGCTATGAGTAGTGTTTGTAGGTCTGGCATGCGAGTTGCACCCGTCTCGAAATC
modifications: KS9 modified T (formula 1) at underlined T, i.e. T 3' of the 5' primer region
binding result (chromogranin A (CgA)): no binding | binding result (alpha-amylase [1]): binds

B2: AML1243KR8m3s63Fw_s15 (ssDNA)
DNA: TAACGCCGCCTATTGCGAGGTGTGGCTAGTCGTTATAGGTCCACCGAGTTGCACCAAAAAAAAAAAAAAAAAAAA
modifications: KS9 modified T (formula 1) at underlined T, i.e. T 3' of the 5' primer region
Kd (alpha-amylase [2]): 18.7 nM

B3: Amy_258KK10R8m4 (ssDNA)
DNA: GGTTACGCCCAGGACACATTTCTGTAGTGAAGTCCTGGTTGGCAAATTCATGGTAAGCTCGGTCTCCTCGGATAATCAAAAAAAAAAAAAAAAAAAA
modifications: KK10 modified T (formula 2) at double-underlined T, i.e. T 3' of the 5' primer region
Kd (alpha-amylase [3]): 7.34 nM

B4: AML1243KR8m1s65_FW_s15 (ssDNA)
DNA: TAACGCCGCCTATTGTGAACGACGTGAATAGTGTTTGTGGGTCCGGAGTTGCACCCGAAAAAAAAAAAAAAAAAAAA
modifications: KS9 modified T (formula 1) at underlined T, i.e. T 3' of the 5' primer region
Kd (alpha-amylase [4]): 0.447 nM

B5: AML1243KR8m2s63 (ssDNA)
DNA: GGATACCTTAACGCCGCCTATTGCTATGAGTAGTGTTTGTAGGTCTGGCATGCGAGTTGCACCAAAAAAAAAAAAAAAAAAAA
modifications: KS9 modified T (formula 1) at underlined T, i.e. T 3' of the 5' primer region
Kd (alpha-amylase [5]): 3.93 nM

B6: AML1243KR8m4 (ssDNA)
DNA: GGATACCTTAACGCCGCCTATTGATTCTCTGTGACTAGTGTTTGTAGGTCGCAGAGTTGCACCCGTCTCGAAATCAAAAAAAAAAAAAAAAAAAA
modifications: KS9 modified T (formula 1) at underlined T, i.e. T 3' of the 5' primer region
binding result (alpha-amylase [6]): binds

B7: AML1243KR8m1s58_FW_s15 (ssDNA)
DNA: TAACGCCGCCTATTGTGAACGACGTGAATAGTGTTTGTGGGTCCGGAGTTAAAAAAAAAAAAAAAAAAAA
modifications: KS9 modified T (formula 1) at underlined T, i.e. T 3' of the 5' primer region
Kd (alpha-amylase [7]): 0.358 nM

B8: AML1243KR8m3s63 (ssDNA)
DNA: GGATACCTTAACGCCGCCTATTGCGAGGTGTGGCTAGTCGTTATAGGTCCACCGAGTTGCACCAAAAAAAAAAAAAAAAAAAA
modifications: KS9 modified T (formula 1) at underlined T, i.e. T 3' of the 5' primer region
Kd (alpha-amylase [8]): 16.4 nM
